Laboratory results published in US20240261333A1 (published 2024).

Columns and labels:
Assay in all cases: anti-FLAG co-IP from lysate of N-FLAG B3GNT2 cells, mass spectrometry
[1] = molecular target: T1, ELOC (human, UniProt Q15369 1-112)
T1 construct: also called NP_001191791.1
Procedure: (§1) Cells were plated in 10-cm cell culture dishes and grown to 60-80% confluency. For each condition, two biological replicates were harvested for co-IP. Cells were washed with PBS and 4 mL of lysis buffer (20 mM HEPES, 1% Triton X-100, 150 mM NaCl, 1 mM EDTA, and 10% glycerol) containing protease inhibitor cocktail was added. Cells were scraped and lysate was incubated at 4° C. under rotary agitation for 1 h. Lysate was centrifuged at 14,000×g for 10 min at 4° C. Supernatant was transferred to a new tube and an aliquot was taken as the input. […] For Western blots, 10 μg/mL Chicken Anti-FLAG (Aves labs ET-DY100) and IgY control (R&D Systems AB-101-C) antibodies were biotinylated (Thermo Fisher Scientific 90407) and added to the respective conditions. Lysates with antibodies were incubated at 4° C. under rotary agitation overnight. For each mL of lysate, 50 μL of Pierce Protein A/G Magnetic Beads (Mass spectrometry; Thermo Fisher Scientific 88803) or Pierce Streptavidin Magnetic Beads (Western blot; Thermo Fisher Scientific 88817) was washed twice with lysis buffer. Lysates with antibodies were added to the beads and incubated at 4° C. under rotary agitation for 4 h. Beads were washed with lysis buffer 3 times and resuspended in lysis buffer for storage.
(§2) Magnetic beads were resuspended in 100 mM Tris pH 7.8, reduced, alkylated and digested with trypsin at 37° ° C. overnight. This solution was subjected to solid phase extraction to concentrate the peptides and remove unwanted reagents followed by injection onto a Shimadzu HPLC with fraction collector. Eight fractions were collected and after concentration were injected on a Waters NanoAcquity HPLC equipped with a self-packed Aeris 3 μm C18 analytical column 0.075 mm by 20 cm, (Phenomenex). Peptides were eluted using standard reverse-phase gradients. The effluent from the column was analyzed using a Thermo Orbitrap Elite mass spectrometer (nanospray configuration) operated in a data dependent manner for 54 minutes. The resulting fragmentation spectra were correlated against the known database using Proteome Discover 1.4 (Thermo Fisher Scientific).

[2] = molecular target: T2, IFI16 (human, UniProt Q16666-2 1-729, limits assumed)
T2 construct: also called NP_001193496.1 (+3)
T2 sequence (looked up): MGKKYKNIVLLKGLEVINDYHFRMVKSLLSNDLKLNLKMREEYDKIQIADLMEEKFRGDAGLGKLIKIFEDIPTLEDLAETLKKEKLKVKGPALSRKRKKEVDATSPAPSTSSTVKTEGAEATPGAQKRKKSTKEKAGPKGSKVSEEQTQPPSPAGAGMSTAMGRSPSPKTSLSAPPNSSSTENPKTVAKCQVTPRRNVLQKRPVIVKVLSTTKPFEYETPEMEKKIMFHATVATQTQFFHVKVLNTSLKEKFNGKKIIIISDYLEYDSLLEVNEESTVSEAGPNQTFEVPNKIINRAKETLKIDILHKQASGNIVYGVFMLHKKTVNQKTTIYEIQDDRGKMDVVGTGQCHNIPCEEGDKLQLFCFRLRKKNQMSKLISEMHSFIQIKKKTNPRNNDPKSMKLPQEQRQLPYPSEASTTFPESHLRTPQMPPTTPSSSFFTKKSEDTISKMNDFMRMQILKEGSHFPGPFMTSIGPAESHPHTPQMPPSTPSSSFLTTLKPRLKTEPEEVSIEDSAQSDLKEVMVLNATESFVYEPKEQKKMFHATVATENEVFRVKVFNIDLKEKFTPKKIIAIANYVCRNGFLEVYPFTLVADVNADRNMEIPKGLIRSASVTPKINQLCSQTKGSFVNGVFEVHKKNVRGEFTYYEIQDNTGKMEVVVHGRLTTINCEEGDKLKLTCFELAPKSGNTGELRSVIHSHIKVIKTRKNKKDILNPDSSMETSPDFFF
Procedure: as §1, §2

[3] = molecular target: T3, TECR (human, UniProt Q9NZ01 1-308)
T3 construct: also called NP_612510.1 (+2)
T3 sequence (looked up): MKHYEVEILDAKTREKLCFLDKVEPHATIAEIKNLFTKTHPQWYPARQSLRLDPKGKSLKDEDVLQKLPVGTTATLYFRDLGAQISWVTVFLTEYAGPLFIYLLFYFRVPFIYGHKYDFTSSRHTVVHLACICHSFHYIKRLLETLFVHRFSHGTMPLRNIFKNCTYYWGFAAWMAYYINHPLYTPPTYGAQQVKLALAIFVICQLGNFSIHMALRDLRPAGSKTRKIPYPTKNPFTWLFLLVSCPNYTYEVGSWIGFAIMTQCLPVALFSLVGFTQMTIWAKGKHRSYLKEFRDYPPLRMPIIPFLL
Procedure: as §1, §2

[4] = molecular target: T4, SFXN3 (human, UniProt Q9BWM7 1-321)
T4 construct: also called NP_112233.2
T4 sequence (looked up): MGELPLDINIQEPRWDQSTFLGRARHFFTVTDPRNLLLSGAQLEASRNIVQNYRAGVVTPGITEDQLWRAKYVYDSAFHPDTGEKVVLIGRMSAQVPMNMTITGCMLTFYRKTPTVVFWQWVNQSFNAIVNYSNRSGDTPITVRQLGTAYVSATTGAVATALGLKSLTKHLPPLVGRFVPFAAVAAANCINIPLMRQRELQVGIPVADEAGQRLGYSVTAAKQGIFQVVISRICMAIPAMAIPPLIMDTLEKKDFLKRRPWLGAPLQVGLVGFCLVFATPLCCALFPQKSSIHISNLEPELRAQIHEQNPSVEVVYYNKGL
Procedure: as §1, §2

[5] = molecular target: T5, NTPCR (human, UniProt Q9BSD7 2-190)
T5 construct: also called NP_001316381.1 (+2)
T5 sequence (looked up): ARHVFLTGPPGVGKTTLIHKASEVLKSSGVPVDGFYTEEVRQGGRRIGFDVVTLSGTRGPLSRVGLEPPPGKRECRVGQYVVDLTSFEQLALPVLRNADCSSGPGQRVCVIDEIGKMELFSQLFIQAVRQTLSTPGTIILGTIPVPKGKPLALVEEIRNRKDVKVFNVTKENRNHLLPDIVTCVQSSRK
Procedure: as §1, §2

Measured: co-IP mass spectrometry count

T1 sequence (Q15369 whole entry): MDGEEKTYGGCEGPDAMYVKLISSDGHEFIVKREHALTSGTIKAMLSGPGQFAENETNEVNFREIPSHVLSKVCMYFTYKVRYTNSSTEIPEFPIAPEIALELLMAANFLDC

B1: N-terminal FLAG tagged B3GNT2 (enzyme, human, UniProt Q9NY97 1-397, looked up)
chain: MSVGRRRIKLLGILMMANVFIYFIMEVSKSSSQEKNGKGEVIIPKEKFWKISTPPEAYWNREQEKLNRQYNPILSMLTNQTGEAGRLSNISHLNYCEPDLRVTSVVTGFNNLPDRFKDFLLYLRCRNYSLLIDQPDKCAKKPFLLLAIKSLTPHFARRQAIRESWGQESNAGNQTVVRVFLLGQTPPEDNHPDLSDMLKFESEKHQDILMWNYRDTFFNLSLKEVLFLRWVSTSCPDTEFVFKGDDDVFVNTHHILNYLNSLSKTKAKDLFIGDVIHNAGPHRDKKLKYYIPEVVYSGLYPPYAGGGGFLYSGHLALRLYHITDQVHLYPIDDVYTGMCLQKLGLVPEKHKGFRTFDIEEKNKNNICSYVDLMLVHSRKPQEMIDIWSQLQSAHLKC
notes: Bait of the co-IP; pulled down from cell lysate with mouse anti-FLAG antibody; also called N-FLAG B3GNT2; N-term FLAG; not shown: N-terminal FLAG tag
0: all assays above
